Source: patent publication US20060121465A1, “Sgk and nedd used as diagnostic and therapeutic targets” (priority 2002, published 2006)
Changes are numbered by the printed parent chain. Values belong to the molecule of their own block, whether it stands above or below them.

Target: T1, Sglt1 (Homo sapiens, UniProt P13866)
T1 construct: expressed in transfected cells; host or cells: Xenopus laevis oocytes injected with in vitro synthesized cRNA
T1 sequence (P13866 1-664): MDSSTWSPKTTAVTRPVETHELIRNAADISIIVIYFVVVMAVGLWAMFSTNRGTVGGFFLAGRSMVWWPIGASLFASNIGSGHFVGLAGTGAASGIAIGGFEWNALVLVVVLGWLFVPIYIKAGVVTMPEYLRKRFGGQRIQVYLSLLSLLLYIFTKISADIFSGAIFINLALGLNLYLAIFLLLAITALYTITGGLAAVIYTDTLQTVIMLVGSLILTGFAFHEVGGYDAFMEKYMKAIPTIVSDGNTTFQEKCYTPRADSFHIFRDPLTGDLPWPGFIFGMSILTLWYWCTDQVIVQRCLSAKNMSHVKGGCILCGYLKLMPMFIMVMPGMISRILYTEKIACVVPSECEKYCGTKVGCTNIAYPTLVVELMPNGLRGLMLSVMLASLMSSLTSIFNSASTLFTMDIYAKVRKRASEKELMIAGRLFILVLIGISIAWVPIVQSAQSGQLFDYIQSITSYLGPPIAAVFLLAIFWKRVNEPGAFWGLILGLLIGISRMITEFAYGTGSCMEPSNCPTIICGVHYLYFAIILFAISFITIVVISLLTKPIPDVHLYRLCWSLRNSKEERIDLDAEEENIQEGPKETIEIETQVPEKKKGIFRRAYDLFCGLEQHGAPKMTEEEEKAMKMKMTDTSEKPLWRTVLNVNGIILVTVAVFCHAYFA
Experiment: Two-electrode voltage clamp of glucose-induced currents in Xenopus laevis oocytes expressing Sglt1
Format: cell-based
Conditions: for effect on currents induced by glucose (in words): oocytes expressing Sglt1; for stimulation of glucose transport by additional coexpression: further series of experiments (FIG. 5)
From the text: cRNAs encoding wild-type Sgk1 [Waldegger S, Barth P, Raber G, Lang F: Cloning and characterization of a putative human serine/threonine protein kinase transcriptionally modified during anisotonic and isotonic alterations of cell volume. […] Biochem J. 1999; 339: 319-28], wild-type Sgk3 and PKB [Kobayashi T, Deak M, Morrice N, Cohen P. Characterization of the structure and regulation of two novel isoforms of serum- and glucocorticoid-induced protein kinase. Biochem J. 1999; 334: 189-97], consitutively active ^T308D,S473DPKB [Alessi D R, Cohen P. Mechanism of activation and function of protein kinase B. Curr. Opin Genet Dev. 1998; 8: 55-62], wild-type Nedd4-2 [Debonneville C, Flores S Y, Kamynina E, Plant P J, Tauxe C, Thomas M A, Munster C, Chraibi A, Pratt J H, Horisberger J D, Pearce D, Loffing J, Staub O. Phosphorylation of Nedd4-2 by Sgk1 regulates epithelial Na(+) channel cell surface expression. EMBO J. 2001; 20: 7052-7059] and wild-type Sglt1 [Hediger M A, Coady M J, Ikeda T S, Wright E M. Expression cloning and cDNA sequencing of the Na^+/glucose co-transporter. Nature. 1987; 330: 379-381] were synthesized in vitro [Wagner C A, Friedrich B, Setiawan I, Lang F, Bröer S: The use of Xenopus laevis oocytes for the functional characterization of heterologously expressed membrane proteins. Cell Physiol Biochem 2000; 10: 1-12]. Dissection of the Xenopus laevis ovaries, and collection and treatment of the oocytes, have already been described in detail [Wagner C A, Friedrich B, Setiawan I, Lang F, Broer S: The use of Xenopus laevis oocytes for the functional characterization of heterologously expressed membrane proteins. Cell Physiol Biochem 2000; 10: 1-12]. The oocytes were injected with 5 ng of human sglt1, 7.5 ng of human sgk1, ^K127Nsgk1, ^S422Dsgk1, sgk3, PKB or ^T308D,S473DPKB, and/or with 5 ng of Xenopus nedd4-2. Control oocytes were injected with water. Electrophysiological experiments were carried out at room temperature for 3 days after the respective cRNAs had been injected. The currents which were induced by the extracellular administration of 20 mM or 5 mM glucose were measured using a two-electrode voltage clamp [Wagner C A, Friedrich B, Setiawan I, Lang F, Broer S: The use of Xenopus laevis oocytes for the functional characterization of heterologously expressed membrane proteins. Cell Physiol Biochem 2000; 10: 1-12] and taken as a measure of the glucose transport. The data were filtered at 10 Hz and analyzed using a MacLab Digital to Analog Converter and corresponding software (AD Instruments, Castle Hill, Australia). The control bath solution (ND 96) contained 96 mM NaCl, 2 mM KCl, 1.8 mM CaCl2, 1 mM MgCl2 and 5 mM HEPES, pH 7.4. All the substances were used at the stated concentrations. The final solutions were titrated with HCl or NaOH to the stated pH or pH 7.4. The flow rate of the superfusion solution was 20 ml/min and achieved complete change of solution within 10 s.
For the calculations, the data were quoted as arithmetic means±SEM. n is the number of oocytes investigated. All the experiments were carried out in at least three different groups of oocytes. Qualitatively similar data were obtained in all the repeats. The results were tested for significant differences using Student's t test. Only results giving P<0.05 were made use of as being statistically significant.

[1] = 20 mM glucose, coexpressed with Sglt1, increase vs oocytes expressing Sglt1 on its own
[2] = 20 mM glucose, coexpressed with Sglt1 and Nedd4-2
[3] = coexpressed with Sglt1 and Nedd4-2
[4] = further series of experiments (FIG. 5, procedure as in FIG. 4), coexpressed with Sglt1
[5] = 5 mM glucose, coexpressed with Sglt1 and Nedd4-2
[6] = 5 mM glucose, coexpressed with Sglt1 (FIG. 4)

- glucose-induced current increased by coexpression [1]: 117.4±15.8%
- glucose-induced current higher than in oocytes expressing Sglt1 on its own [2]: 106.5±18.2%
Molecule: ^T308D,S473DPKB: constitutively active protein kinase B mutant, expressed from injected cRNA
- effect on currents induced by glucose (in words) (20 mM glucose, figure legends): stimulated the currents and reversed the effect of Nedd4-2

- stimulation of glucose transport by additional coexpression [3]: no significant effect
- glucose-induced current increased by coexpression [4]: no statistically significant effect
B4: Sgk2: isoform of Sgk, coexpressed in oocytes (protein, UniProt Q9HBY8 1-367, looked up)
Serine/threonine-protein …: MNSSPAGTPSPQPSRANGNINLGPSANPNAQPTDFDFLKVIGKGNYGKVLLAKRKSDGAFYAVKVLQKKSILKKKEQSHIMAERSVLLKNVRHPFLVGLRYSFQTPEKLYFVLDYVNGGELFFHLQRERRFLEPRARFYAAEVASAIGYLHSLNIIYRDLKPENILLDCQGHVVLTDFGLCKEGVEPEDTTSTFCGTPEYLAPEVLRKEPYDRAVDWWCLGAVLYEMLHGLPPFYSQDVSQMYENILHQPLQIPGGRTVAACDLLQSLLHKDQRQRLGSKADFLEIKNHVFFSPINWDDLYHKRLTPPFNPNVTGPADLKHFDPEFTQEAVSKSIGCTPDTVASSSGASSAFLGFSYAPEDDDILDC

Continued, molecule first:

Molecule: PKB: wild-type protein kinase B, expressed from injected cRNA
- stimulation of glucose transport by additional coexpression [3]: 107±20%
- glucose-induced current increased by coexpression [4]: 101±18%

B1: Sgk1: wild-type serum- and glucocorticoid-dependent kinase 1, expressed from injected human sgk1 cRNA (protein, UniProt O00141 1-431, looked up)
Serine/threonine-protein …: MTVKTEAAKGTLTYSRMRGMVAILIAFMKQRRMGLNDFIQKIANNSYACKHPEVQSILKISQPQEPELMNANPSPPPSPSQQINLGPSSNPHAKPSDFHFLKVIGKGSFGKVLLARHKAEEVFYAVKVLQKKAILKKKEEKHIMSERNVLLKNVKHPFLVGLHFSFQTADKLYFVLDYINGGELFYHLQRERCFLEPRARFYAAEIASALGYLHSLNIVYRDLKPENILLDSQGHIVLTDFGLCKENIEHNSTTSTFCGTPEYLAPEVLHKQPYDRTVDWWCLGAVLYEMLYGLPPFYSRNTAEMYDNILNKPLQLKPNITNSARHLLEGLLQKDRTKRLGAKDDFMEIKSHVFFSLINWDDLINKKITPPFNPNVSGPNDLRHFDPEFTEEPVPNSIGKSPDSVLVTASVKEAAEAFLGFSYAPPTDSFL
- glucose-induced current more than in oocytes injected with Sglt1 and Nedd4-2 mRNA [5]: 126±23%
- glucose-induced current more than in oocytes only injected with Sglt1 [5]: 61±21%
- glucose-induced current (5 mM glucose, coexpressed with Sglt1 and Nedd4-2 (FIG. 4)): 60.5±9.9 nA
- glucose-induced current increased by coexpression [1]: 81.3±19.0%
- glucose-induced current higher than in oocytes expressing Sglt1 on its own [2]: 34.8±11.8%
- effect on currents induced by glucose (in words) (20 mM glucose, figure legends): stimulated the currents and reversed the effect of Nedd4-2

B2: ^S422DSgk1: constitutively active Sgk1 mutant (serine 422 to aspartate), expressed from injected cRNA (protein, UniProt O00141 1-431, looked up, variant S422D)
Serine/threonine-protein …: B1 Serine/threonine-protein … with S422D
- glucose-induced current (Iglc) [6]: 65.4±10.6 nA
- increase of Iglc by coexpression [6]: 77±23%
- effect on currents induced by glucose (in words) (5 mmol glucose, FIG. 4 legend): significantly increased
- glucose-induced current increased by coexpression [1]: 72.4±9.1%
- glucose-induced current higher than in oocytes expressing Sglt1 on its own [2]: 59.2±19.8%
- effect on currents induced by glucose (in words) (20 mM glucose, figure legends): stimulated the currents and reversed the effect of Nedd4-2
- stimulation of glucose transport by additional coexpression [3]: 48±11%
- glucose-induced current increased by coexpression [4]: 55±12%

B3: ^K127NSgk1: inactive Sgk1 mutant, expressed from injected cRNA (protein, UniProt O00141 1-431, looked up, variant K127N)
Serine/threonine-protein …: B1 Serine/threonine-protein … with K127N
- change of substrate-induced current (20 mM glucose, coexpressed with Sglt1, signed change vs Sglt1 alone): −2.0±5.3%
- glucose-induced current lower than in oocytes expressing Sglt1 on its own [2]: 54.9±9.7%

B5: Sgk3: wild-type Sgk isoform 3, expressed from injected cRNA (protein, UniProt Q96BR1 1-496, looked up)
Serine/threonine-protein …: MQRDHTMDYKESCPSVSIPSSDEHREKKKRFTVYKVLVSVGRSEWFVFRRYAEFDKLYNTLKKQFPAMALKIPAKRIFGDNFDPDFIKQRRAGLNEFIQNLVRYPELYNHPDVRAFLQMDSPKHQSDPSEDEDERSSQKLHSTSQNINLGPSGNPHAKPTDFDFLKVIGKGSFGKVLLAKRKLDGKFYAVKVLQKKIVLNRKEQKHIMAERNVLLKNVKHPFLVGLHYSFQTTEKLYFVLDFVNGGELFFHLQRERSFPEHRARFYAAEIASALGYLHSIKIVYRDLKPENILLDSVGHVVLTDFGLCKEGIAISDTTTTFCGTPEYLAPEVIRKQPYDNTVDWWCLGAVLYEMLYGLPPFYCRDVAEMYDNILHKPLSLRPGVSLTAWSILEELLEKDRQNRLGAKEDFLEIQNHPFFESLSWADLVQKKIPPPFNPNVAGPDDIRNFDTAFTEETVPYSVCVSSDYSIVNASVLEADDAFVGFSYAPPSEDLFL
- glucose-induced current increased by coexpression [1]: 123.6±15.0%
- glucose-induced current higher than in oocytes expressing Sglt1 on its own [2]: 112.4±19.4%
- effect on currents induced by glucose (in words) (20 mM glucose, figure legends): stimulated the currents and reversed the effect of Nedd4-2
- stimulation of glucose transport by additional coexpression [3]: 114±26%
- glucose-induced current increased by coexpression [4]: 117±16%
